In IntAct's records for PubMed 37100772:

B1: Nucleoprotein (Human coronavirus 229E), P15130 (parent)
chain: MATVKWADASEPQRGRQGRIPYSLYSPLLVDSEQPWKVIPRNLVPINKKDKNKLIGYWNVQKRFRTRKGKRVDLSPKLHFYYLGTGPHKDAKFRERVEGVVWVAVDGAKTEPTGYGVRRKNSEPEIPHFNQKLPNGVTVVEEPDSRAPSRSQSRSQSRGRGESKPQSRNPSSDRNHNSQDDIMKAVAAALKSLGFDKPQEKDKKSAKTGTPKPSRNQSPASSQTSAKSLARSQSSETKEQKHEMQKPRWKRQPNDDVTSNVTQCFGPRDLDHNFGSAGVVANGVKAKGYPQFAELVPSTAAMLFDSHIVSKESGNTVVLTFTTRVTVPKDHPHLGKFLEELNAFTREMQQHPLLNPSALEFNPSQTSPATAEPVRDEVSIETDIIDEVN

Variants of: B1
Conditions: with pabp1_human PABPC1, P11940
Chain of pabp1_human PABPC1, P11940 (P11940 whole entry): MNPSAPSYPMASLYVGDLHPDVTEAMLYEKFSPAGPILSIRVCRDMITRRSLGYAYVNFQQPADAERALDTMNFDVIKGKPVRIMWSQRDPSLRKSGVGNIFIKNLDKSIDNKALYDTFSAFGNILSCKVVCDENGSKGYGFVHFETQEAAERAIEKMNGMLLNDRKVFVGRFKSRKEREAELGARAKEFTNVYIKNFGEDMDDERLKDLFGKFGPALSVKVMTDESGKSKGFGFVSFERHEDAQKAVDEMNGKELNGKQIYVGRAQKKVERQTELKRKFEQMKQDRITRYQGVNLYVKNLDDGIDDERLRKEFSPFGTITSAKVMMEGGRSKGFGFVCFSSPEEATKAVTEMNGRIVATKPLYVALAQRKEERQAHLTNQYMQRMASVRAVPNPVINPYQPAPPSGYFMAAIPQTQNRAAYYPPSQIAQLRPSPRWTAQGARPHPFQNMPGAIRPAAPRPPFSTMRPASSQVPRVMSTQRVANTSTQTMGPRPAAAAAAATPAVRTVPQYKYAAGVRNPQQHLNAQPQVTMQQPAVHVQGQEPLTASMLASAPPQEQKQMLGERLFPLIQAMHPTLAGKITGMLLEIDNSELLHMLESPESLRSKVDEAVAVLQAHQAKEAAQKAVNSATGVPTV

Variant | effect of a mutation on the interaction
L354A;N355G;P356G;A358G;F361A;N362A;P363G | disrupting interaction strength
